Experimental data reported in article PMC12691637.

Target: cytosolic fragment of the McpN chemoreceptor (McpN_CF) (Pseudomonas aeruginosa PAO1)
Assay: ITC; VP microcalorimeter, 25°C; 3 mM Tris, 3 mM PIPES, 3 mM MES, 5 mM 2-mercaptoethanol, pH 8.0; 10 µM cytosolic fragment in the sample cell titrated with 12.8 µL aliquots of 113 µM CheV or CheV D238E; 'Two Binding Sites' model

Which results are given for “CheV D238E (phosphorylation mimic) of Pseudomonas aeruginosa PAO1 (natural protein)”?
KD of the first event (high affinity, endothermic): 8 nM; KD of the second event (lower affinity, exothermic): 3000 nM; N of the first event: 0.5
